The results in this text go back to the supplement of paper PMC9112550, “Optimization of the antimicrobial peptide Bac7 by deep mutational scanning” (BMC Biology, 2022).

The test system of the data set is Escherichia coli TOP10. Briefly: shrunken log2 fold change of peptide-encoding DNA abundance (4.5 h post-induction vs induction); higher = less antimicrobial activity (less host growth inhibition). Conditions: time post-induction: 4.5 h; library: site-saturation at positions 5, 18, 19, 20.
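Further: peptides expressed intracellularly from a pBAD plasmid library in pooled LB shake-flask culture, induced with 0.3% L-arabinose, DNA abundance read by NGS, three biological replicates, DESeq2 with apeglm shrinkage.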

Consider RRIRTRPPRLPRPRPRPRALPRP, for which the “shrunken log2 fold change” value came out at 0.116.

With RRIRGRPPRLPRPRPRPRTLPRP, the “shrunken log2 fold change” value was found to be 0.477.

Regarding RRIRGRPPRLPRPRPRPSMIPRP, the “shrunken log2 fold change” value worked out at 0.267.

For RRIRSRPPRLPRPRPRPMWQPRP, the “shrunken log2 fold change” value is -0.175.

In the case of RRIRTRPPRLPRPRPRPVYAPRP, the “shrunken log2 fold change” value was -0.249.

Take RRIRERPPRLPRPRPRPDSWPRP: the “shrunken log2 fold change” value was -0.563.

On to RRIRLRPPRLPRPRPRPTPNPRP, for which the “shrunken log2 fold change” value came out at 0.403.

As to RRIRPRPPRLPRPRPRPEGYPRP, the “shrunken log2 fold change” value was 0.128.

Consider RRIRRRPPRLPRPRPRPFCSPRP, for which the “shrunken log2 fold change” value is -0.0439.

Consider RRIRIRPPRLPRPRPRPPVYPRP, for which the “shrunken log2 fold change” value is -0.288.

As for RRIRDRPPRLPRPRPRPCKIPRP, the “shrunken log2 fold change” value is -0.0385.

For the sequence RRIRLRPPRLPRPRPRPDLEPRP, the “shrunken log2 fold change” value worked out at 0.0992.

On to RRIRPRPPRLPRPRPRPERRPRP, for which the “shrunken log2 fold change” value worked out at 0.158.

On to RRIRVRPPRLPRPRPRPDMGPRP, for which the “shrunken log2 fold change” value is -0.0133.

On to RRIRKRPPRLPRPRPRPPNVPRP, for which the “shrunken log2 fold change” value turned out to be 0.197.

Regarding RRIRCRPPRLPRPRPRPKYAPRP, the “shrunken log2 fold change” value was -0.0494.

With RRIRRRPPRLPRPRPRPTTWPRP, the “shrunken log2 fold change” value is 0.28.

With RRIRDRPPRLPRPRPRPSCMPRP, the “shrunken log2 fold change” value came out at 0.0312.

Turning to RRIRKRPPRLPRPRPRPHKGPRP, the “shrunken log2 fold change” value was -0.0331.

For the sequence RRIRGRPPRLPRPRPRPGHLPRP, the “shrunken log2 fold change” value came out at 0.0503.

In the case of RRIRTRPPRLPRPRPRPVAAPRP, the “shrunken log2 fold change” value came to 0.389.

In the case of RRIRCRPPRLPRPRPRPPFPPRP, the “shrunken log2 fold change” value worked out at 0.302.

For the sequence RRIRMRPPRLPRPRPRPALHPRP, the “shrunken log2 fold change” value is 0.791.

Turning to RRIRYRPPRLPRPRPRPDFIPRP, the “shrunken log2 fold change” value is -0.348.

Regarding RRIRGRPPRLPRPRPRPRIKPRP, the “shrunken log2 fold change” value came to 0.487.

For RRIRDRPPRLPRPRPRPPKIPRP, the “shrunken log2 fold change” value was -0.0144.

As to RRIRHRPPRLPRPRPRPYMYPRP, the “shrunken log2 fold change” value was -1.14.

For the sequence RRIRHRPPRLPRPRPRPVWWPRP, the “shrunken log2 fold change” value was determined as 0.174.

For the sequence RRIRDRPPRLPRPRPRPEAGPRP, the “shrunken log2 fold change” value stood at 0.67.

For RRIRNRPPRLPRPRPRPRSAPRP, the “shrunken log2 fold change” value turned out to be 0.0888.

As to RRIRVRPPRLPRPRPRPMLGPRP, the “shrunken log2 fold change” value was -0.0049.

Take RRIRFRPPRLPRPRPRPLITPRP: the “shrunken log2 fold change” value is -0.503.

As for RRIRWRPPRLPRPRPRPIQGPRP, the “shrunken log2 fold change” value was 0.265.

Regarding RRIRRRPPRLPRPRPRPACCPRP, the “shrunken log2 fold change” value worked out at 0.714.

For the sequence RRIRDRPPRLPRPRPRPGVKPRP, the “shrunken log2 fold change” value stood at 0.0336.

Consider RRIRERPPRLPRPRPRPFLQPRP, for which the “shrunken log2 fold change” value is -0.172.

For the sequence RRIRNRPPRLPRPRPRPTEKPRP, the “shrunken log2 fold change” value is -0.0107.

For the sequence RRIRERPPRLPRPRPRPRLMPRP, the “shrunken log2 fold change” value is -0.103.

For the sequence RRIRMRPPRLPRPRPRPEMLPRP, the “shrunken log2 fold change” value was 3.45.

Turning to RRIRGRPPRLPRPRPRPAAHPRP, the “shrunken log2 fold change” value stood at 0.807.

Take RRIRHRPPRLPRPRPRPGHGPRP: the “shrunken log2 fold change” value came to 0.0264.

As to RRIRARPPRLPRPRPRPLQPPRP, the “shrunken log2 fold change” value was determined as 0.583.

Turning to RRIRDRPPRLPRPRPRPTAWPRP, the “shrunken log2 fold change” value is 1.51.

For the sequence RRIRYRPPRLPRPRPRPMQHPRP, the “shrunken log2 fold change” value is -0.17.

As to RRIRNRPPRLPRPRPRPESWPRP, the “shrunken log2 fold change” value was found to be 0.362.

With RRIRERPPRLPRPRPRPNRFPRP, the “shrunken log2 fold change” value was determined as 0.0105.

RRIRHRPPRLPRPRPRPMRFPRP: the “shrunken log2 fold change” value is -0.00752.

With RRIRQRPPRLPRPRPRPKMMPRP, the “shrunken log2 fold change” value is -0.082.

On to RRIRRRPPRLPRPRPRPQQEPRP, for which the “shrunken log2 fold change” value was -0.0236.

For RRIRYRPPRLPRPRPRPGYIPRP, the “shrunken log2 fold change” value was -0.0964.

Regarding RRIRTRPPRLPRPRPRPDKFPRP, the “shrunken log2 fold change” value amounted to 0.116.

With RRIRGRPPRLPRPRPRPAKNPRP, the “shrunken log2 fold change” value is 0.554.

In the case of RRIRYRPPRLPRPRPRPAMHPRP, the “shrunken log2 fold change” value was -0.045.

For RRIRDRPPRLPRPRPRPIKIPRP, the “shrunken log2 fold change” value was determined as 0.0725.

Regarding RRIRRRPPRLPRPRPRPWRMPRP, the “shrunken log2 fold change” value was determined as 0.00176.

As to RRIRFRPPRLPRPRPRPNSIPRP, the “shrunken log2 fold change” value is -0.216.

For RRIRDRPPRLPRPRPRPCGPPRP, the “shrunken log2 fold change” value was determined as 0.0478.

For RRIRWRPPRLPRPRPRPVPRPRP, the “shrunken log2 fold change” value worked out at 0.549.

Consider RRIRGRPPRLPRPRPRPRRFPRP, for which the “shrunken log2 fold change” value was determined as 0.402.

On to RRIRERPPRLPRPRPRPIWWPRP, for which the “shrunken log2 fold change” value is -0.0447.

Regarding RRIRERPPRLPRPRPRPHSFPRP, the “shrunken log2 fold change” value turned out to be 0.0142.

Turning to RRIRTRPPRLPRPRPRPGQNPRP, the “shrunken log2 fold change” value is 0.138.

Regarding RRIRLRPPRLPRPRPRPLHRPRP, the “shrunken log2 fold change” value is -0.226.

RRIRTRPPRLPRPRPRPTVDPRP: the “shrunken log2 fold change” value was -0.126.

RRIRMRPPRLPRPRPRPHSFPRP: the “shrunken log2 fold change” value was determined as 0.0932.

RRIRPRPPRLPRPRPRPIQWPRP: the “shrunken log2 fold change” value was 0.0833.

Take RRIRTRPPRLPRPRPRPCLCPRP: the “shrunken log2 fold change” value is -0.29.

For the sequence RRIRARPPRLPRPRPRPDGMPRP, the “shrunken log2 fold change” value is -0.141.

As for RRIRVRPPRLPRPRPRPCYPPRP, the “shrunken log2 fold change” value was -0.327.

In the case of RRIRFRPPRLPRPRPRPIQIPRP, the “shrunken log2 fold change” value was -0.234.

In the case of RRIRFRPPRLPRPRPRPDSAPRP, the “shrunken log2 fold change” value is -0.102.

With RRIRGRPPRLPRPRPRPVNPPRP, the “shrunken log2 fold change” value was found to be 0.127.

Consider RRIRTRPPRLPRPRPRPVMRPRP, for which the “shrunken log2 fold change” value was -0.0406.

On to RRIRVRPPRLPRPRPRPSMIPRP, for which the “shrunken log2 fold change” value was -0.375.

In the case of RRIRQRPPRLPRPRPRPPNQPRP, the “shrunken log2 fold change” value is 0.448.

On to RRIRPRPPRLPRPRPRPTQWPRP, for which the “shrunken log2 fold change” value worked out at 0.248.

With RRIRVRPPRLPRPRPRPNEMPRP, the “shrunken log2 fold change” value was 0.0222.

Regarding RRIRGRPPRLPRPRPRPSIDPRP, the “shrunken log2 fold change” value worked out at 1.84.

Take RRIRDRPPRLPRPRPRPYNGPRP: the “shrunken log2 fold change” value is -0.0516.

Consider RRIRHRPPRLPRPRPRPWVFPRP, for which the “shrunken log2 fold change” value turned out to be 0.139.

Take RRIRWRPPRLPRPRPRPTPKPRP: the “shrunken log2 fold change” value worked out at 0.627.

For the sequence RRIRFRPPRLPRPRPRPGVLPRP, the “shrunken log2 fold change” value worked out at 0.0194.

RRIRMRPPRLPRPRPRPVKPPRP: the “shrunken log2 fold change” value stood at 0.202.

Consider RRIRLRPPRLPRPRPRPPQTPRP, for which the “shrunken log2 fold change” value was found to be 0.0847.

As for RRIRCRPPRLPRPRPRPPRHPRP, the “shrunken log2 fold change” value was 0.646.

For the sequence RRIRWRPPRLPRPRPRPIWSPRP, the “shrunken log2 fold change” value was 0.629.

For RRIRSRPPRLPRPRPRPIKKPRP, the “shrunken log2 fold change” value stood at 0.234.

RRIRQRPPRLPRPRPRPPAMPRP: the “shrunken log2 fold change” value was -0.0312.

In the case of RRIRLRPPRLPRPRPRPHMYPRP, the “shrunken log2 fold change” value is -1.07.

On to RRIRIRPPRLPRPRPRPRWNPRP, for which the “shrunken log2 fold change” value is -0.249.

For the sequence RRIRWRPPRLPRPRPRPQCQPRP, the “shrunken log2 fold change” value was found to be 0.129.

For the sequence RRIRMRPPRLPRPRPRPQCHPRP, the “shrunken log2 fold change” value was 0.0857.

Consider RRIRERPPRLPRPRPRPMMIPRP, for which the “shrunken log2 fold change” value is -0.251.

As to RRIRCRPPRLPRPRPRPEPFPRP, the “shrunken log2 fold change” value worked out at 0.0621.

With RRIRQRPPRLPRPRPRPQQMPRP, the “shrunken log2 fold change” value was 0.156.

Regarding RRIRSRPPRLPRPRPRPKHHPRP, the “shrunken log2 fold change” value was -0.387.

Turning to RRIRLRPPRLPRPRPRPWDYPRP, the “shrunken log2 fold change” value turned out to be 0.0642.

On to RRIRWRPPRLPRPRPRPTMSPRP, for which the “shrunken log2 fold change” value was -0.065.

In the case of RRIRHRPPRLPRPRPRPCRLPRP, the “shrunken log2 fold change” value was determined as 0.0253.

Regarding RRIRTRPPRLPRPRPRPMTYPRP, the “shrunken log2 fold change” value is -0.0748.

Take RRIRCRPPRLPRPRPRPKPYPRP: the “shrunken log2 fold change” value came out at 0.179.

Consider RRIRGRPPRLPRPRPRPWTQPRP, for which the “shrunken log2 fold change” value worked out at 0.236.

For RRIRRRPPRLPRPRPRPSDGPRP, the “shrunken log2 fold change” value stood at 0.0219.

Take RRIRRRPPRLPRPRPRPWMTPRP: the “shrunken log2 fold change” value came to 0.0417.

For RRIRPRPPRLPRPRPRPFVYPRP, the “shrunken log2 fold change” value was -0.706.

As for RRIRWRPPRLPRPRPRPYIEPRP, the “shrunken log2 fold change” value is -0.629.

In the case of RRIRFRPPRLPRPRPRPQNDPRP, the “shrunken log2 fold change” value is -0.296.

As for RRIRHRPPRLPRPRPRPFTPPRP, the “shrunken log2 fold change” value was -0.484.

For the sequence RRIRSRPPRLPRPRPRPYFTPRP, the “shrunken log2 fold change” value worked out at 1.09.

In the case of RRIRLRPPRLPRPRPRPLIQPRP, the “shrunken log2 fold change” value was -0.247.

For RRIRSRPPRLPRPRPRPLGRPRP, the “shrunken log2 fold change” value was determined as 0.351.

In the case of RRIRFRPPRLPRPRPRPPIGPRP, the “shrunken log2 fold change” value is -0.229.

With RRIRDRPPRLPRPRPRPVIHPRP, the “shrunken log2 fold change” value was determined as 0.0491.

With RRIRWRPPRLPRPRPRPCFIPRP, the “shrunken log2 fold change” value is -0.423.

RRIRYRPPRLPRPRPRPWGCPRP: the “shrunken log2 fold change” value is -0.404.

Consider RRIRQRPPRLPRPRPRPWLTPRP, for which the “shrunken log2 fold change” value was -0.13.

For RRIRYRPPRLPRPRPRPQNLPRP, the “shrunken log2 fold change” value is -0.0535.

For the sequence RRIRFRPPRLPRPRPRPWPTPRP, the “shrunken log2 fold change” value was -0.0457.

In the case of RRIRLRPPRLPRPRPRPQAEPRP, the “shrunken log2 fold change” value amounted to 0.0388.

Consider RRIRHRPPRLPRPRPRPPWCPRP, for which the “shrunken log2 fold change” value came to 0.0341.

Consider RRIRIRPPRLPRPRPRPEMMPRP, for which the “shrunken log2 fold change” value came out at 0.0516.

Regarding RRIRLRPPRLPRPRPRPAQNPRP, the “shrunken log2 fold change” value came out at 0.57.

For the sequence RRIRCRPPRLPRPRPRPCRKPRP, the “shrunken log2 fold change” value is -0.0115.

Regarding RRIRKRPPRLPRPRPRPQADPRP, the “shrunken log2 fold change” value amounted to 0.0626.

For the sequence RRIRGRPPRLPRPRPRPYVTPRP, the “shrunken log2 fold change” value stood at 0.0521.
